Assay results: patent US11883434B2, “Extracellular vesicles and methods of using” (NUtech Ventures, priority 2017, dated 2024)
Read-outs that look alike come from different tables or passages of the source.

Assays:
Format in all cases: cell-based
[1] = test system: human umbilical vein endothelial cells (HUVEC); test: Uptake of fluorophore-labeled milk exosomes into HUVECs; conditions: exosomal surface proteins removed with proteinase K, HUVEC
[2] = test system: human colon carcinoma Caco-2 cells; set-up: exosome uptake: dose or concentration left out as unconfirmed
Experimental: (§1) Caco-2 cells and IEC-6 cells were seeded at a density of 20,000 and 7000 cells/well, respectively, in 96-well plates, and allowed to adhere for 48 h, when cells were 75% confluent. The exosomes were labeled with the fluorophore, FM 4-64 (Molecular Probes). One microliter of a stock solution of FM 4-64 (5.9 mmol/L) was added to 1 mL of exosome suspension and incubated for 15 min at 37° C., and excess FM 4-64 was removed by ultracentrifugation at 120,000 3 g at 4° C. for 90 min. Transport studies were conducted using FM4-64-labeled exosomes using 3-110 mg of exosomal protein/well (Caco-2 cells) or 27-652 mg of exosomal protein/well (IEC-6 cells) and incubating cells for various periods of time to assess saturation kinetics; blanks were created using solvent. Assays were calibrated by quantifying the fluorescence of a known mass of exosomes labeled with FM 4-64. Exosome uptake was analyzed by measuring the cell fluorescence at 515 (excitation) and 640 nm (emission) using a Biotek FLx800 plate reader (BioTek Instru-ments). Fluorescence readings were corrected for cell autofluorescence by subtracting signals measured in cells incubated with exosome-depleted media. Transport kinetics was modeled using the Michaelis-Menten equation and nonlinear regression; modeling was conducted using GraphPad Prism 6.0 (GraphPad Software). In Caco-2 cells, exosome uptake was linear for up to 120 min if transport was measured using nonsaturating substrate concentrations (FIG. 33A): y=0.0012x+0.014 (r2=0.97; P<0.05). In IEC-6 cells exosome uptake was linear for only up to 60 min if transport was measured using nonsaturating substrate concentrations (FIG. 33B): y=0.0033x+0.033 (r2=0.75; P<0.05). Subsequent transport studies were conducted using incubation times of 8 hours for Caco-2 cells (FIG. 34B). Transport of milk exosome uptake was also studied in human umbilical vein endothelial cells (HUVECs) human small intestinal cells (FHs cells).
In both mammalian cells, the uptake of bovine milk exosomes was mediated by saturable transport mechanisms. Transport kinetics was modeled using the Michaelis-Menten equation. Exosome uptake was analyzed by measuring the cell fluorescence at 515 (excitation) and 640 nm (emission) using a Biotek FLx800 plate reader (BioTek Instruments) as previously described above. […] When the incubation temperature was decreased from 37° C. to 4° C., the transport rate decreased from 100%+56% to 54%+13% using a substrate concentration of 55.5 μg exosomal protein/200 μL in Caco-2 cells (P<0.05; n=3). Likewise, when the incubation temperature was decreased from 37° C. to 4° C., the transport rate decreased from 100%+11% to 44%+25% using a substrate concentration of 153 μg exosomal protein/200 μL in IEC-6 cells (P<0.05; n=3). Subsequent transport studies were conducted using substrate concentrations of 55 μg/200 mL and 153 μg/200 mL in Caco-2 cells and IEC-6 cells, respectively. […] (N=3; p<0.05). […] FIGS. 37A and 37B show saturation kinetics of milk exosome uptake in human small intestinal cells (FHs cells).
To remove surface protein from milk exosomes, the exosomes were subjected to various proteases, including trypsin, proteinase K, AspN, GluC, ArgC. […] Following protease treatment, the exosomes were subject to ultracentrifugation. The supernatant containing the enzyme cleaved surface peptides were identified using LC-MS/MS using LC/MS-MS and Mascot, and glycoproteins were identified using SwissProt. One way Anova and Bonferroni's Multiple comparison was used to test for statistical significance. The pellet containing the exosomes with its surface proteins removed was resuspended in 1×PBS and used for the transport studies shown in FIGS. 40-43.
The uptake of bovine milk exosomes into human and rat intestinal cells depended on surface proteins in both exosomes and cells. Exosomes were treated with proteases as described above and depicted in FIG. 39. […]

[3] = test system: rat primary small intestinal IEC-6 cells; test: Uptake of FM4-64-labeled milk exosomes into IEC-6 cells; conditions: exosomes treated with 0.105 mMol/L trypsin for 30 mins
Experimental: as §1, with “Transport studies were conducted using FM4-64-labeled exosomes using 3-110 mg of exosomal protein/well (Caco-2 cells) or 27-652 mg of exosomal protein/well (IEC-6 cells) and incubating cells for various periods of time to assess saturation kinetics; blanks were created using solvent.” left out, “Transport kinetics was modeled using the Michaelis-Menten equation and nonlinear regression; modeling was conducted using GraphPad Prism 6.0 (GraphPad Software).” left out, “Subsequent transport studies were conducted using incubation times of 8 hours for Caco-2 cells (FIG. 34B). Transport of milk exosome uptake was also studied in human umbilical vein endothelial cells (HUVECs) human small intestinal cells (FHs cells).” left out

[4] = test system: human small intestinal cells (FHs cells); test: Uptake of milk exosomes into FH cells (protease, glycosidase, lectin, sonication)

B1: proteinase K: Non-specific protease used to remove surface proteins from exosomes or cells (protein, UniProt P06873 106-384, looked up)
Proteinase K: AAQTNAPWGLARISSTSPGTSTYYYDESAGQGSCVYVIDTGIEASHPEFEGRAQMVKTYYYSSRDGNGHGTHCAGTVGSRTYGVAKKTQLFGVKVLDDNGSGQYSTIIAGMDFVASDKNNRNCPKGVVASLSLGGGYSSSVNSAAARLQSSGVMVAVAAGNNNADARNYSPASEPSVCTVGASDRYDRRSSFSNYGSVLDIFGPGTSILSTWIGGSTRSISGTSMATPHVAGLAAYLMTLGKTTAASACRYIADTANKGDLSNIPFGTVNLLAYNNYQA
exosome uptake [1]: 50 % of controls | exosome uptake ([2]; CaCo2 cells treated with proteinase K): 18%±16% | exosome uptake ([2]; exosomes treated with proteinase K): 32%±25% | decrease of exosome uptake compared with controls ([2]; removal of exosome and cell surface proteins, inhibition of endocytosis/vesicle trafficking, or of glycoprotein binding): 61-85%

B2: trypsin: Serine protease cleaving at lysine or arginine; applied to exosomes or cells (protein, UniProt P00761 9-231, looked up)
Trypsin: IVGGYTCAANSIPYQVSLNSGSHFCGGSLINSQWVVSAAHCYKSRIQVRLGEHNIDVLEGNEQFINAAKIITHPNFNGNTLDNDIMLIKLSSPATLNSRVATVSLPRSCAAAGTECLISGWGNTKSSGSSYPSLLQCLKAPVLSDSSCKSSYPGQITGNMICVGFLEGGKDSCQGDSGGPVVCNGQLQGIVSWGYGCAQKNKPGVYTKVCNYVNWIQQTIAAN
effect on exosome uptake in Caco-2 cells [2]: significant decrease in exosome transport | transport rates (Vmax) ([2]; exosomes treated with the labelled protease, intestinal transport): 40±0.6 arbitrary units | exosome uptake [3]: 82%±8%

B3: Arg-C: Cysteine protease cleaving at arginine and lysine (protein, UniProt P09870 51-181; P09870 191-526, looked up)
Clostripain light chain: NKNQKVTIMYYCDADNNLEGSLLNDIEEMKTGYKDSPNLNLIALVDRSPRYSSDEKVLGEDFSDTRLYKIEHNKANRLDGKNEFPEISTTSKYEANMGDPEVLKKFIDYCKSNYEADKYVLIMANHGGGAR
Clostripain heavy chain: AICWDDSNLDKNGEADCLYMGEISDHLTEKQSVDLLAFDACLMGTAEVAYQYRPGNGGFSADTLVASSPVVWGPGFKYDKIFDRIKAGGGTNNEDDLTLGGKEQNFDPATITNEQLGALFVEEQRDSTHANGRYDQHLSFYDLKKAESVKRAIDNLAVNLSNENKKSEIEKLRGSGIHTDLMHYFDEYSEGEWVEYPYFDVYDLCEKINKSENFSSKTKDLASNAMNKLNEMIVYSFGDPSNNFKEGKNGLSIFLPNGDKKYSTYYTSTKIPHWTMQSWYNSIDTVKYGLNPYGKLSWCKDGQDPEINKVGNWFELLDSWFDKTNDVTGGVNHYQW
effect on exosome uptake in Caco-2 cells [2]: significant decrease in exosome transport

B4: PNA: Lectin binding Galβ1-3GalNAcα1-Ser/Thr (protein, UniProt P02872 24-273, looked up)
Galactose-binding lectin: AETVSFNFNSFSEGNPAINFQGDVTVLSNGNIQLTNLNKVNSVGRVLYAMPVRIWSSATGNVASFLTSFSFEMKDIKDYDPADGIIFFIAPEDTQIPAGSIGGGTLGVSDTKGAGHFVGVEFDTYSNSEYNDPPTDHVGIDVNSVDSVKTVPWNSVSGAVVKVTVIYDSSTKTLSVAVTNDNGDITTIAQVVDLKAKLPERVKFGFSASGSLGGRQIHLIRSWSFTSTLITTTRRSIDNNEKKIMNMASA
effect on exosome uptake in FH cells ([4]; FH cells treated with the labelled agent): decreases the uptake | effect on exosome uptake in FH cells ([4]; exosomes treated with the labelled agent): decreases the uptake
